Results published in patent publication US7132401B2, “Beta-secretase substrates and uses thereof” (Merck & Co., Inc., priority 2002, dated 2006).

Target: β-secretase (Homo sapiens, UniProt P56817)
Assay: β-secretase cleavage of peptide substrates and peptide libraries followed by LC/MS
Type: biochemical
Details: for Relative rates of hydrolysis: hydrolysis by β-secretase, Swedish mutant EVNLDAEF (SEQ ID NO: 257) = 1, each peptide 1 μM, pH 4.5, 37° C.; for rate of hydrolysis by β-secretase, times faster than the Swedish mutant sequence (SEQ ID NO: 257): relative to Swedish mutant APP sequence, peptides incubated simultaneously with β-secretase; for rate of cleavage (depletion of full length substrate) of P1′ peptide library components: P1′ peptide library treated with β-secretase, FIG. 2; for formation of C-terminal cleavage products from the P1′ peptide library: FIG. 3
Procedure: Following synthesis and purification, each of the eight peptide libraries was incubated with the enzyme β-secretase and the relative rates of cleavage of each individual peptide library component was followed with liquid chromatography/mass spectrometry (LC/MS) with analysis of both the depletion of the full length peptide substrate, as well as the formation of peptide cleavage fragments. The enzyme β-secretase was incubated at concentrations ranging from 5 to 50 nM at pH 4.5 with each of the peptide libraries and/or mixtures of synthetic peptide substrates.
The mixtures of substrates and enzyme were incubated in an Agillent Technology 1100 series liquid chromatograph with a temperature controlled autosampler. The temperature for all β-secretase enzymatic assays was held constant at 37° C. A 100 μl aliquot of each reaction mixture was injected onto a 1×50 mm C18 reverse phase 1c column (Metachem Technologies Inc., Torrance, Calif.) every two hours to monitor reaction progress. After injection, a highly optimized solvent gradient was delivered to the column to maximize resolving power for each of the substrate library components. […] After the LC/MS run, the data were processed by selected-ion chromatograms for each of the peptide substrate library components by extracting 0.5 Da mass windows surrounding the calculated mass values of each of the peptides.

β-secretase, sequence (P56817 46-501): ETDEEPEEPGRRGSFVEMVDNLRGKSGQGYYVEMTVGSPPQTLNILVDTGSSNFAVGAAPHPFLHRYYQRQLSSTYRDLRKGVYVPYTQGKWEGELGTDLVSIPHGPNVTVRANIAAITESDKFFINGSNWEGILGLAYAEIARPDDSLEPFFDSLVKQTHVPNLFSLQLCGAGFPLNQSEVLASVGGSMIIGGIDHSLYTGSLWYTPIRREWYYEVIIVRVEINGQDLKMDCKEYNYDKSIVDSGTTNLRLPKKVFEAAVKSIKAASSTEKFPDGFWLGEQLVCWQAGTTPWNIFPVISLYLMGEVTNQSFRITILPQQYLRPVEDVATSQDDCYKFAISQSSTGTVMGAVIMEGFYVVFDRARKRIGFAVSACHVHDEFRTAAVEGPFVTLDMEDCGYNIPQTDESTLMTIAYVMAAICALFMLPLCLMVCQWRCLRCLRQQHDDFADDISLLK

Substance	Relative rates of hydrolysis	rate of hydrolysis by β-secretase, times faster than the Swedish mutant sequence (SEQ ID NO: 257)	rate of cleavage (depletion of full length substrate) of P1′ peptide library components	formation of C-terminal cleavage products from the P1′ peptide library
EVNFAAEF (Beta-Secretase Cleavage Site)	17			
EVNFAVEF (Beta-Secretase Cleavage Site)	30	roughly 30 times		
EVNFEAEF (Beta-Secretase Cleavage Site)	17			
EVNFEVEF (Beta-Secretase Cleavage Site)	60	60 times		
EVNLDAEF (Beta-Secretase Cleavage Site) [8-mer of Swedish mutant APP around the β-secretase cleavage site, reference compound]	1		intermediate	less conducive to β-secretase hydrolysis than either Glu or Ala
P1′=Glu: P1′ peptide library component: Swedish mutant APP 8-mer with Glu at P1′ (EVNLEAEF)			most rapidly hydrolyzed	more rapid and comparable rates of formation
P1′=Gly: P1′ peptide library component: Swedish mutant APP 8-mer with Gly at P1′ (EVNLGAEF)			not cleaved	
P1′=Pro: P1′ peptide library component: Swedish mutant APP 8-mer with Pro at P1′ (EVNLPAEF)			not cleaved	
